# Data reported in patent US20250304643A1 (BAINAN BIOTECH, published 2025).
# *1 amine or outer side, *2 acyl side, *3 side chain or, on linkers, in order; H or OH if unused. Side-chain parts run from the residue outwards. [ ]: non-standard residue; d: D form. The star is where a group is joined. C16 diacid = O=C(O)CCCCCCCCCCCCCCC(=O)*; γGlu = O=C(O)[C@H](CCC(=O)[*:2])N[*:1]; Palmitoyl = CCCCCCCCCCCCCCCC(=O)*; Aib = CC(C)(N)C(=O)O
# How the values were obtained:
# [1] = target: T1, human glucose-dependent insulinotropic polypeptide receptor (human, UniProt P48546 22-466); test: cell-based or functional assay
# T1 sequence (looked up): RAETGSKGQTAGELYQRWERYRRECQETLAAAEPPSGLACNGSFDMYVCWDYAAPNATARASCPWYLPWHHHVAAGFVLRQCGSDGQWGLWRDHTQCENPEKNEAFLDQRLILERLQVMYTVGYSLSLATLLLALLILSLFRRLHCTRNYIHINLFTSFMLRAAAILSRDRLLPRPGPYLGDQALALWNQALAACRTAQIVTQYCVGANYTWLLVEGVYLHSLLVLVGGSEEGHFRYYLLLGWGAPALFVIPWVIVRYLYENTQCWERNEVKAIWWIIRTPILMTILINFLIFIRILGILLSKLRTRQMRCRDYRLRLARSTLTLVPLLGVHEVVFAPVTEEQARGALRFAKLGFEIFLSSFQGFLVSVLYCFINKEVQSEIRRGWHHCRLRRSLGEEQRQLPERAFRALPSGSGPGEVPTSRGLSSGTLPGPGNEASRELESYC
# [2] = target: T2, human glucagon-like peptide-2 receptor (human, UniProt O95838 1-553); test: cell-based or functional assay
# T2 sequence (looked up): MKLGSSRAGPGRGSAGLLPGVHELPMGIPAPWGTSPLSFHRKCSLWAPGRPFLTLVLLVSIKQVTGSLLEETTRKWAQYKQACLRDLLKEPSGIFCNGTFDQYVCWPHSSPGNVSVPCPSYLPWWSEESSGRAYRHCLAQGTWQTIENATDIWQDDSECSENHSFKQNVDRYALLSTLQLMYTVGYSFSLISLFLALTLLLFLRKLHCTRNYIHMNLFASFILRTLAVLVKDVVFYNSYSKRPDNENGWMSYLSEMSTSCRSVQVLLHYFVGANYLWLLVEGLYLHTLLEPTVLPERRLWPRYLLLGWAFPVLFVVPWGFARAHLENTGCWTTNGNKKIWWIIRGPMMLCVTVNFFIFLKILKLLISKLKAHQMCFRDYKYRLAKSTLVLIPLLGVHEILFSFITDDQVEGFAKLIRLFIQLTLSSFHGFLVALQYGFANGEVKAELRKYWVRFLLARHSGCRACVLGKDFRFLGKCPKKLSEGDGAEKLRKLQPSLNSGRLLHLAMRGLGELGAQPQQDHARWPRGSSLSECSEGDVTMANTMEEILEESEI
Binder,Efficacy GIPR [1] [%],Efficacy GLP-2R [2] [%]
Palmitoyl-HADGTFISDYSTILELLAARDFINWLIQTKITKNDWKHNITQ-OH [Compound no. 15],106,70
H-H[Aib]DGK([γGlu-Palmitoyl])FISDYSTILDNLAARDFINWLIQTKITK-OH (SMILES CCCCCCCCCCCCCCCC(=O)N[C@@H](CCC(=O)NCCCC[C@H](NC(=O)CNC(=O)[C@H](CC(=O)O)NC(=O)C(C)(C)NC(=O)[C@@H](N)Cc1c[nH]cn1)C(=O)N[C@@H](Cc1ccccc1)C(=O)N[C@H](C(=O)N[C@@H](CO)C(=O)N[C@@H](CC(=O)O)C(=O)N[C@@H](Cc1ccc(O)cc1)C(=O)N[C@@H](CO)C(=O)N[C@H](C(=O)N[C@H](C(=O)N[C@@H](CC(C)C)C(=O)N[C@@H](CC(=O)O)C(=O)N[C@@H](CC(N)=O)C(=O)N[C@@H](CC(C)C)C(=O)N[C@@H](C)C(=O)N[C@@H](C)C(=O)N[C@@H](CCCNC(=N)N)C(=O)N[C@@H](CC(=O)O)C(=O)N[C@@H](Cc1ccccc1)C(=O)N[C@H](C(=O)N[C@@H](CC(N)=O)C(=O)N[C@@H](Cc1c[nH]c2ccccc12)C(=O)N[C@@H](CC(C)C)C(=O)N[C@H](C(=O)N[C@@H](CCC(N)=O)C(=O)N[C@H](C(=O)N[C@@H](CCCCN)C(=O)N[C@H](C(=O)N[C@H](C(=O)N[C@@H](CCCCN)C(=O)O)[C@@H](C)O)[C@@H](C)CC)[C@@H](C)O)[C@@H](C)CC)[C@@H](C)CC)[C@@H](C)CC)[C@@H](C)O)[C@@H](C)CC)C(=O)O) [Compound no. 9],110,91
Palmitoyl-HADGTFISDYSTILD[Aib]LAARDFINWLIQTKITKNDWKHNITQ-OH [Compound no. 16],99,64
{C16 diacid}-H[Aib]DGTFISDYST[Aib]LDNLAARDFINWLIQTKITK-OH (SMILES CC[C@H](C)[C@H](NC(=O)[C@H](Cc1ccccc1)NC(=O)[C@H](CC(=O)O)NC(=O)[C@H](CCCNC(=N)N)NC(=O)[C@H](C)NC(=O)[C@H](C)NC(=O)[C@H](CC(C)C)NC(=O)[C@H](CC(N)=O)NC(=O)[C@H](CC(=O)O)NC(=O)[C@H](CC(C)C)NC(=O)C(C)(C)NC(=O)[C@@H](NC(=O)[C@H](CO)NC(=O)[C@H](Cc1ccc(O)cc1)NC(=O)[C@H](CC(=O)O)NC(=O)[C@H](CO)NC(=O)[C@@H](NC(=O)[C@H](Cc1ccccc1)NC(=O)[C@@H](NC(=O)CNC(=O)[C@H](CC(=O)O)NC(=O)C(C)(C)NC(=O)[C@H](Cc1c[nH]cn1)NC(=O)CCCCCCCCCCCCCCC(=O)O)[C@@H](C)O)[C@@H](C)CC)[C@@H](C)O)C(=O)N[C@@H](CC(N)=O)C(=O)N[C@@H](Cc1c[nH]c2ccccc12)C(=O)N[C@@H](CC(C)C)C(=O)N[C@H](C(=O)N[C@@H](CCC(N)=O)C(=O)N[C@H](C(=O)N[C@@H](CCCCN)C(=O)N[C@H](C(=O)N[C@H](C(=O)N[C@@H](CCCCN)C(=O)O)[C@@H](C)O)[C@@H](C)CC)[C@@H](C)O)[C@@H](C)CC) [Compound no. 17],98,90
H-H[Aib]DGTFISDYK([γGlu-Palmitoyl])TILDNLAARDFINWLIQTKGKKNDWKHNITQ-NH2 [Compound no. 14],101,114
H-H[Aib]DGTFK([γGlu-Palmitoyl])SDYSTILDNLAARDFINWLIQTKITK-OH (SMILES CCCCCCCCCCCCCCCC(=O)N[C@@H](CCC(=O)NCCCC[C@H](NC(=O)[C@H](Cc1ccccc1)NC(=O)[C@@H](NC(=O)CNC(=O)[C@H](CC(=O)O)NC(=O)C(C)(C)NC(=O)[C@@H](N)Cc1c[nH]cn1)[C@@H](C)O)C(=O)N[C@@H](CO)C(=O)N[C@@H](CC(=O)O)C(=O)N[C@@H](Cc1ccc(O)cc1)C(=O)N[C@@H](CO)C(=O)N[C@H](C(=O)N[C@H](C(=O)N[C@@H](CC(C)C)C(=O)N[C@@H](CC(=O)O)C(=O)N[C@@H](CC(N)=O)C(=O)N[C@@H](CC(C)C)C(=O)N[C@@H](C)C(=O)N[C@@H](C)C(=O)N[C@@H](CCCNC(=N)N)C(=O)N[C@@H](CC(=O)O)C(=O)N[C@@H](Cc1ccccc1)C(=O)N[C@H](C(=O)N[C@@H](CC(N)=O)C(=O)N[C@@H](Cc1c[nH]c2ccccc12)C(=O)N[C@@H](CC(C)C)C(=O)N[C@H](C(=O)N[C@@H](CCC(N)=O)C(=O)N[C@H](C(=O)N[C@@H](CCCCN)C(=O)N[C@H](C(=O)N[C@H](C(=O)N[C@@H](CCCCN)C(=O)O)[C@@H](C)O)[C@@H](C)CC)[C@@H](C)O)[C@@H](C)CC)[C@@H](C)CC)[C@@H](C)CC)[C@@H](C)O)C(=O)O) [Compound no. 10],102,23
{C16 diacid}-H[Aib]EGTFISDYST[Aib]LDNLAARDFINWLIQTKITK-OH (SMILES CC[C@H](C)[C@H](NC(=O)[C@H](Cc1ccccc1)NC(=O)[C@H](CC(=O)O)NC(=O)[C@H](CCCNC(=N)N)NC(=O)[C@H](C)NC(=O)[C@H](C)NC(=O)[C@H](CC(C)C)NC(=O)[C@H](CC(N)=O)NC(=O)[C@H](CC(=O)O)NC(=O)[C@H](CC(C)C)NC(=O)C(C)(C)NC(=O)[C@@H](NC(=O)[C@H](CO)NC(=O)[C@H](Cc1ccc(O)cc1)NC(=O)[C@H](CC(=O)O)NC(=O)[C@H](CO)NC(=O)[C@@H](NC(=O)[C@H](Cc1ccccc1)NC(=O)[C@@H](NC(=O)CNC(=O)[C@H](CCC(=O)O)NC(=O)C(C)(C)NC(=O)[C@H](Cc1c[nH]cn1)NC(=O)CCCCCCCCCCCCCCC(=O)O)[C@@H](C)O)[C@@H](C)CC)[C@@H](C)O)C(=O)N[C@@H](CC(N)=O)C(=O)N[C@@H](Cc1c[nH]c2ccccc12)C(=O)N[C@@H](CC(C)C)C(=O)N[C@H](C(=O)N[C@@H](CCC(N)=O)C(=O)N[C@H](C(=O)N[C@@H](CCCCN)C(=O)N[C@H](C(=O)N[C@H](C(=O)N[C@@H](CCCCN)C(=O)O)[C@@H](C)O)[C@@H](C)CC)[C@@H](C)O)[C@@H](C)CC) [Compound no. 19],98,81
HXDGTFISDYKTILDNLAARDFINWLIQTKITK (Aib at 2; K(γGlu-C16) at 11; C-terminal -OH) [Compound no. 11],115,87
H-H[Aib]DGTFISDYSTILK([γGlu-Palmitoyl])NLAARDFINWLIQTKITK-OH (SMILES CCCCCCCCCCCCCCCC(=O)N[C@@H](CCC(=O)NCCCC[C@H](NC(=O)[C@H](CC(C)C)NC(=O)[C@@H](NC(=O)[C@@H](NC(=O)[C@H](CO)NC(=O)[C@H](Cc1ccc(O)cc1)NC(=O)[C@H](CC(=O)O)NC(=O)[C@H](CO)NC(=O)[C@@H](NC(=O)[C@H](Cc1ccccc1)NC(=O)[C@@H](NC(=O)CNC(=O)[C@H](CC(=O)O)NC(=O)C(C)(C)NC(=O)[C@@H](N)Cc1c[nH]cn1)[C@@H](C)O)[C@@H](C)CC)[C@@H](C)O)[C@@H](C)CC)C(=O)N[C@@H](CC(N)=O)C(=O)N[C@@H](CC(C)C)C(=O)N[C@@H](C)C(=O)N[C@@H](C)C(=O)N[C@@H](CCCNC(=N)N)C(=O)N[C@@H](CC(=O)O)C(=O)N[C@@H](Cc1ccccc1)C(=O)N[C@H](C(=O)N[C@@H](CC(N)=O)C(=O)N[C@@H](Cc1c[nH]c2ccccc12)C(=O)N[C@@H](CC(C)C)C(=O)N[C@H](C(=O)N[C@@H](CCC(N)=O)C(=O)N[C@H](C(=O)N[C@@H](CCCCN)C(=O)N[C@H](C(=O)N[C@H](C(=O)N[C@@H](CCCCN)C(=O)O)[C@@H](C)O)[C@@H](C)CC)[C@@H](C)O)[C@@H](C)CC)[C@@H](C)CC)C(=O)O) [Compound no. 13],95,95
